B1: POU domain, class 6, transcription factor 2, residues 609 to 663; numbered along this chain, P78424 (parent)
chain: KRRTSFTPQALEILNAHFEKNTHPSGQEMTEIAEKLNYDREVVRVWFCNKRQALK

Variants of: B1
Test: abundance fitness (aPCA) (normalised: wild type 0, dead -1); higher = more abundant; growth selection in yeast, the domain comes from the species named
Settings: Homo sapiens

Abundance fitness: each site, then its substitutions
V43: A -0.614 | L -0.201 | K -1.17 | C -0.24 | T -0.579 | Q -1.04 | Y -0.908 | W -0.979 | G -0.943 | E -0.762 | M -0.931 | H -1.04 | P -0.938 | F -0.665 | S -0.958
Q52: M -0.188 | V -0.161 | C -0.126 | I 0.045 | Y -0.339 | W -0.244 | F -0.171 | E 0.117 | S -0.175 | A -0.006 | L -0.005 | T -0.059 | N 0.014 | P -0.218 | K 0.018 | D -0.119 | G -0.223 | H 0.022
N37: Q -0.06 | V -0.456 | L -0.241 | E -0.075 | G 0.081 | C -0.252 | Y 0.127 | W -0.444 | T -0.263 | S -0.046 | D -0.042 | A -0.035 | R -0.063 | K -0.036 | F -0.353 | P -0.229 | I -0.326
V45: Q -0.296 | K -0.149 | L 0.02 | I -0.068 | E -0.194 | Y -0.653 | W -0.055 | P -0.706 | D 0.094 | H -0.141 | A -0.029 | M 0.07 | G 0.03 | R 0.018 | F -0.243
A53: S 0.005 | V -0.2 | T -0.157 | F -0.267 | E -0.105 | M 0.034 | Q 0.042 | H 0.012 | N 0.046 | K -0.167 | Y -0.018 | L -0.086 | W -0.089 | P -0.392 | R -0.194 | C -0.215 | I -0.11
W46: H -0.53 | N -0.891 | D -0.447 | V -1.02 | K -0.983 | E -0.91 | G -0.707 | F -0.405 | Q -0.827 | P -0.801 | I -0.828 | Y 0.032 | C -0.997 | R -0.753
L36: V -0.003 | W -0.642
F47: C -0.843 | Y -0.162 | H -0.913 | R -0.949 | L -0.782 | G -0.853 | W -0.168 | Q -0.807 | P -0.775 | K -0.722 | S -0.81 | T -0.763 | E -0.89 | N -1.08 | I -0.782 | D -0.762 | M -0.686 | A -0.744
R51: Y -0.097 | T -0.243 | P -0.636 | N -0.074 | L 0.011 | V -0.165 | E -0.337 | I -0.226 | S -0.174 | A -0.094 | F -0.331 | C -0.316 | H -0.385 | Q -0.031 | K -0.026 | M -0.377 | W -0.295 | D -0.457
Y38: C 0.023 | G -0.2 | P -1.08 | F -0.145 | S 0.034 | R -0.024 | D -0.152 | A 0.02 | L 0.006 | W -0.071 | H -0.176 | I 0.027 | T 0.072 | K -0.133 | N -0.405 | Q 0.024 | M 0.022
R40: D 0.186 | Y -0.087 | Q -0.12 | E 0.017 | P -0.003 | K 0.001 | A 0.024 | F 0.041 | S -0.034 | G 0.069 | I -0.029 | W -0.014 | T -0.011 | L 0.061 | C -0.064 | V -0.013

— the Human Domainome abundance scans (Beltran et al. 2025)
